Measurements published in paper PMC4371549.
Read-outs that look alike come from different tables or passages of the source.

Experiments:
Experiment in all cases: resonant mirror detection
[1] = target: calmodulin (UniProt P0DP23)
[2] = target: cytoplasmic domain of CD44 (UniProt P16070)
[3] = target: cytoplasmic domain of band 3 (UniProt P02730)
[4] = target: cytoplasmic domain of glycophorin C (UniProt P04921)
[5] = target: p55 (UniProt Q00013)
[6] = target: cytoplasmic domain of CD44 (UniProt P16070); remark: listed apart in the source
[7] = target: cytoplasmic domain of band 3 (UniProt P02730); remark: listed apart in the source
[8] = target: cytoplasmic domain of glycophorin C (UniProt P04921); remark: listed apart in the source
[9] = target: p55 (UniProt Q00013); remark: listed apart in the source

p55, sequence (Q00013 whole entry, the tested form may be a part): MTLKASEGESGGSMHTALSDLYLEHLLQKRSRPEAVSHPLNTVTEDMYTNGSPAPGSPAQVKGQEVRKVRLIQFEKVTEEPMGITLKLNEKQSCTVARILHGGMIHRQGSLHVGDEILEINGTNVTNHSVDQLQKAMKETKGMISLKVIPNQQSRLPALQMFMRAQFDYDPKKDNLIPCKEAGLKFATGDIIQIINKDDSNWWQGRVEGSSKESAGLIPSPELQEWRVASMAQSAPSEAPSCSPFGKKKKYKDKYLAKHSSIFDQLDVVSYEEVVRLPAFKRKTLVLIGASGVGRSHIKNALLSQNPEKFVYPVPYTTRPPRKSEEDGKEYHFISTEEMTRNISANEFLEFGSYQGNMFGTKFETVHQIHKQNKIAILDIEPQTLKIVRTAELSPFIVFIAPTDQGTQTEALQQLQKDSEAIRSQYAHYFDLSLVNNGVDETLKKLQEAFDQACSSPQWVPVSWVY
cytoplasmic domain of band 3, sequence (P02730 1-403): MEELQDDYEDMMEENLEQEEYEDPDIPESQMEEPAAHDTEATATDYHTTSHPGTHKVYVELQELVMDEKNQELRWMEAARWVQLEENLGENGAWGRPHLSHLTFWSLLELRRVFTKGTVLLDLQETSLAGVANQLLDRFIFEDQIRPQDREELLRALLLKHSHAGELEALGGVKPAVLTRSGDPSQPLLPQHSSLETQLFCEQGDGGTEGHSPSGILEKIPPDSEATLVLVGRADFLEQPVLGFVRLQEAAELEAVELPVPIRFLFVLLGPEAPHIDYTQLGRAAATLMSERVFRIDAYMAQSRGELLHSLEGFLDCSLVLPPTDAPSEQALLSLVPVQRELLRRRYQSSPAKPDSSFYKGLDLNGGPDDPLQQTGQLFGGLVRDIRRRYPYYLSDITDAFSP
cytoplasmic domain of CD44, sequence (P16070 671-742): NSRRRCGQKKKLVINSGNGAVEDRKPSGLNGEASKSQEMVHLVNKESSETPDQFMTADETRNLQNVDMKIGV
cytoplasmic domain of glycophorin C, sequence (P04921 82-128): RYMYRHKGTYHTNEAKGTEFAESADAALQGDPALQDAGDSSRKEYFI

Kd [1] [nM]	kon [1] [M⁻¹ s⁻¹]	Kd [2] [nM]	koff [2] [s⁻¹]	kon [2] [M⁻¹ s⁻¹]	Kd [3] [nM]	koff [3] [s⁻¹]	Kd [4] [nM]	Kd [5] [nM]	Kd [6] [nM]	koff [6] [s⁻¹]	kon [6] [M⁻¹ s⁻¹]	Kd [7] [nM]	Kd [8] [nM]	Kd [9] [nM]	koff [9] [s⁻¹]	Substance
2970	180000	–	–	–	–	–	–	–	–	–	–	–	–	–	–	GHP-G30 (headpiece region and 30kDa domain of 4.1G) (from UniProt O43491 1-1005) (domain or fragment)
–	–	314	0.016	51000	183	0.012	237	113	737	0.019	25000	2190	1480	1760	0.012	complex of RHP-G30 and CaM (from UniProt P11171 1-209; P0DP23 1-149)
190	–	–	–	–	–	–	–	–	–	–	–	–	–	–	–	G30 (30kDa membrane binding domain of protein 4.1G) (from UniProt O43491 1-1005) (domain or fragment)
